Target: T1, CRF2-4/zcytor11 heterodimeric receptor on BaF3 cells (human, UniProt Q08334 20-325, limits assumed)
T1 sequence 1: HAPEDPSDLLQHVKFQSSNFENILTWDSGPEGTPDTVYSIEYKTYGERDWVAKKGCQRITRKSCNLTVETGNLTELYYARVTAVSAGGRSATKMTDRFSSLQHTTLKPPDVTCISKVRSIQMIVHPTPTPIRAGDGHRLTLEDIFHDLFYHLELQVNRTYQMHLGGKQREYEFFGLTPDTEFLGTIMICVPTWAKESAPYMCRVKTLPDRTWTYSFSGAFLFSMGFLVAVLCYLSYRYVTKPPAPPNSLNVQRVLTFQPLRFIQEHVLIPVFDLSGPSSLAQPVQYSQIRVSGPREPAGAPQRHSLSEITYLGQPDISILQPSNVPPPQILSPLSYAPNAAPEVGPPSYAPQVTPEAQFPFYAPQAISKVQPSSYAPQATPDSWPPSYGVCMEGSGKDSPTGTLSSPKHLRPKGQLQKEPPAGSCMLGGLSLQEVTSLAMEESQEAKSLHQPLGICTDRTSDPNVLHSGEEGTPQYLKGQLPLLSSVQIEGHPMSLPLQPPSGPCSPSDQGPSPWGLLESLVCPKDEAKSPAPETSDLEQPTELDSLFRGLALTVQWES
T1 sequence 2: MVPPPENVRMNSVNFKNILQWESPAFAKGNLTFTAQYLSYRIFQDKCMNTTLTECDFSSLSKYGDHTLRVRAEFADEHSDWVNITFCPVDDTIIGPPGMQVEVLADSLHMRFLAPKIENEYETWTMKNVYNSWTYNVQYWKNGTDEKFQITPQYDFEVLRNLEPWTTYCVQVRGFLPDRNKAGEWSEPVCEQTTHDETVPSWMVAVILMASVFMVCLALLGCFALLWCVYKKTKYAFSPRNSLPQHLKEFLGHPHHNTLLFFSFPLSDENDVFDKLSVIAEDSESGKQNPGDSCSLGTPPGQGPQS
Experiment: cell-based or functional assay

proliferation of BaF3/CRF2-4/zcytor11 cells (Alamar Blue), fold induction at 0.06 ng/ml ZCYTO18-CEE: ~2 fold induction | proliferation of BaF3/CRF2-4/zcytor11 cells (Alamar Blue), fold over background at 50 ng/ml ZCYTO18-CEE: ~15 fold over background
B1: ZCYTO18-CEE polypeptide purified from BHK 570 cells (ligand)
chain: APISSHCRLDKSNFQQPYITNRTFMLAKEASLADNNTDVRLIGEKLFHGVSMSERCYLMKQVLNFTLEEVLFPQSDRFQPYMQEVVPFLARLSNRLSTCHIEGDDLHIQRNVQKLKDTVKKLGESGEIKAIGELDLLFMSLRNACIEYMPME
